Publication PMC3448610

Experiments:
[1] = molecular target: T1, wild-type human Macrophage Migration Inhibitory Factor (human), P14174; test: static light scattering (multi-angle); purified MIF 20-30 µM in PBS 1X, room temperature, DAWN HELEOS II with UV and refractive index detectors; oligomeric state of the protein with itself; details: remark: other sources report otherwise
T1 chain: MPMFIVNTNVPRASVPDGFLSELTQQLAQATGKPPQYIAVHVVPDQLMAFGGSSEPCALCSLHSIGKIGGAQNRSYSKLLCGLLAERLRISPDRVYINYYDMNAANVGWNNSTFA

[2] = molecular target: T1, wild-type human Macrophage Migration …; test: AUC; sedimentation velocity, 50,000 rpm, 20°C, PBS 1X pH 7.4, protein 5-50 µM (15 µM in Figure 3); c(s) analysis with SEDFIT; oligomeric state of the protein with itself; details: remark: other sources report otherwise

B1: wild-type human Macrophage Migration Inhibitory Factor, P14174 1-115 (natural protein)
chain: T1 chain
[1]
  stoichiometry N: 3
[2]
  stoichiometry N: 3
